Test results reported in patent US20240052047A1 (Pfizer, published 2024).

Columns and labels:
[1] = target: T1, human IL27 receptor (IL27RA/gp130 heterodimer) on human cells (human, UniProt Q6UWB1 33-636; P40189 23-918); assay: cell-based or functional assay
[2] = target: T1, human IL27 receptor (IL27RA/gp130 …); assay: cell-based or functional assay; remark: listed apart in the source

B1: mAb-4894 anti-IL27RA/gp130 bispecific antibody (bispecific antibody, human IgG1)
heavy 1: EVQLVESGGGLVQPGGSLRLSCAASGFTFEYFGLQWVRQAPGKGLEWIGYTSSGGNYEYYEETLKGRFTISRDNAKNSLYLQMNSLRAEDTAVYYCARTKTGDYWGQGTLVTVSSASTKGPSVFPLAPSSKSTSGGTAALGCLVKDYFPEPVTVSWNSGALTSGVHTFPAVLQSSGLYSLSSVVTVPSSSLGTQTYICNVNHKPSNTKVDKKVEPKSCEKTHTCPPCPAPEAAGAPSVFLFPPKPKDTLMISRTPEVTCVVVDVSHEDPEVKFNWYVDGVEVHNAKTKPREEQYNSTYRVVSVLTVLHQDWLNGKEYKCKVSNKALPAPIEKTISKAKGQPREPQVYTLPPSREEMTKNQVSLTCEVKGFYPSDIAVEWESNGQPENNYKTTPPVLDSDGSFFLYSKLTVDKSRWQQGNVFSCSVMHEALHNHYTQKSLSLSPGK
light 1: DIQMTQSPSSLSASVGDRVTITCRASQDIGNSLTWYQQKPGKAPKRVIFGATGLAAGVPSRFSGSGSGTDFTLTISSLQPEDFATYYCLQSKQYPYTFGQGTKLEIKRTVAAPSVFIFPPSDEQLKSGTASVVCLLNNFYPREAKVQWKVDNALQSGNSQESVTEQDSKDSTYSLSSTLTLSKADYEKHKVYACEVTHQGLSSPVTKSFNRGEC
heavy 2: QVQLVQSGAEVKKPGSSVKVSCKVSGGSISSYYWSWVRQAPGQGLEWIGRIYITGNTNYNPSLKDRVTMTVDTSTSTHYMELSSLRSEDTAVYYCAREGPKLGIFDYWGQGTLVTVSSASTKGPSVFPLAPSSKSTSGGTAALGCLVKDYFPEPVTVSWNSGALTSGVHTFPAVLQSSGLYSLSSVVTVPSSSLGTQTYICNVNHKPSNTKVDKKVEPKSCRKTHTCPPCPAPEAAGAPSVFLFPPKPKDTLMISRTPEVTCVVVDVSHEDPEVKFNWYVDGVEVHNAKTKPREEQYNSTYRVVSVLTVLHQDWLNGKEYKCKVSNKALPAPIEKTISKAKGQPREPQVYTLPPSREEMTKNQVSLTCLVKGFYPSDIAVEWESNGQPENNYKTTPPVLDSDGSFFLYSRLTVDKSRWQQGNVFSCSVMHEALHNHYTQKSLSLSPGK
light 2: DIQMTQSPSSLSASVGDRVTITCRASQSVSSSYLAWYQQKPGKAPKLLIYGTESRATGVPSRFSGSGSGTDFTLTISSLQPEDFATYYCQQYGGYPTFGGGTKVEIKRTVAAPSVFIFPPSDEQLKSGTASVVCLLNNFYPREAKVQWKVDNALQSGNSQESVTEQDSKDSTYSLSSTLTLSKADYEKHKVYACEVTHQGLSSPVTKSFNRGEC
notes: Human IgG1 EE/RR heterodimer with L234A, L235A, G237A (EU); also called GBT-IL27R-4894; GBT-IL-27R-4894
- Th17 Cells IL-17A IC50 (MSD immunoassay of supernatant) [1]: 5.5 pM
- IDO1 in CD14+ monocytes EC50 [2]: 8 pM
- PD-L1 in CD14+ monocytes EC50 (human whole blood) [2]: 2 pM
- pSTAT1 in CD3+ T cells EC50 (human whole blood) [2]: 83 pM
